Target: T1, Protein A (UniProt P38507 37-477)
T1 construct: Precipitation reagent; also called Protein A-Sepharose
Experiment: Protein A-Sepharose precipitation, anti-kappa western blot
Protocol: In a different set of experiments the ability of the ligand Traps to multimerize in the presence of ligand was tested.

B1: gp130-CH1•IL-6Rα-κ (other)
chain 1: ELLDPCGYISPESPVVQLHSNFTAVCVLKEKCMDYFHVNANYIVWKTNHFTIPKEQYTIINRTASSVTFTDIASLNIQLTCNILTFGQLEQNVYGITIISGLPPEKPKNLSCIVNEGKKMRCEWDGGRETHLETNFTLKSEWATHKFADCKAKRDTPTSCTVDYSTVYFVNIEVWVEAENALGKVTSDHINFDPVYKVKPNPPHNLSVINSEELSSILKLTWTNPSIKSVIILKYNIQYRTKDASTWSQIPPEDTASTRSSFTVQDLKPFTEYVFRIRCMKEDGKGYWSDWSEEASGITYEDRPSKAPSFWYKIDPSHTQGYRTVQLVWKTLPPFEANGKILDYEVTLTRWKSHLQNYTVNATKLTVNLTNDRYLATLTVRNLVGKSDAAVLTIPACDFQATHPVMDLKAFPKDNMLWVEWTTPRESVKKYILEWCVLSDKAPCITDWQQEDGTVHRTYLRGNLAESKCYLITVTPVYADGPGSPESIKAYLKQAPPSKGPTVRTKKVGKNEAVLEWDQLPVDVQNGFIRNYTIFYRTIIGNETAVNVDSSHTEYTLSSLTSDTLYMVRMAAYTDEGGKDGPEFTFTTPKFAQGEIESGGQGTLVTVSSASTKGPSVFPLAPSSKSTSGGTAALGCLVKDYFPEPVTVSWNSGALTSGVHTFPAVLQSSGLYSLSSVVTVPSSSLGTQTYICNVNHKPSNTKVDKKVEPKSCDKTHT
chain 2: LAPRRCPAQEVARGVLTSLPGDSVTLTCPGVEPEDNATVHWVLRKPAAGSHPSRWAGMGRRLLLRSVQLHDSGNYSCYRAGRPAGTVHLLVDVPPEEPQLSCFRKSPLSNVVCEWGPRSTPSLTTKAVLLVRKFQNSPAEDFQEPCQYSQESQKFSCQLAVPEGDSSFYIVSMCVASSVGSKFSKTQTFQGCGILQPDPPANITVTAVARNPRWLSVTWQDPHSWNSSFYRLRFELRYRAERSKTFTTWMVKDLQHHCVIHDAWSGLRHVVQLRAQEEFGQGEWSEWSPEAMGTPWTESRSPPAENEVSTPMQALTTNKDDDNILFRDSANATSLPVQDAGTVAAPSVFIFPPSDEQLKSGTASVVCLLNNFYPREAKVQWKVDNALQSGNSQESVTEQDSKDSTYSLSSTLTLSKADYEKHKVYACEVTHQGLSSPVTKSFNRGEC
notes: the experiment prints gp130-CH1; also called G16K
B1: no binding.

Source: patent publication US7083949
